# From patent US20240033374A1, “Nano-structural Protein Degradation Tool, Use, and Preparation Method thereof, and Lipid-based Protein Degradation Tool, Use, and Preparation Method thereof” (HENAN UNIVERSITY, priority 2022, published 2024)
# B1: CRLZ-NP: Camrelizumab (CRLZ), PEG-DSPE linker, PLGA nanoparticle (conjugate, chains of the INN, looked up)
# VH: EVQLVESGGGLVQPGGSLRLSCAASGFTFSSYMMSWVRQAPGKGLEWVATISGGGANTYYPDSVKGRFTISRDNAKNSLYLQMNSLRAEDTAVYYCARQLYYFDYWGQGTTVTVSS
# VL: DIQMTQSPSSLSASVGDRVTITCLASQTIGTWLTWYQQKPGKAPKLLIYTATSLADGVPSRFSGSGSGTDFTLTISSLQPEDFATYYCQQVYSIPWTFGGGTKVEIK
# modifications: PEG-DSPE PLGA nanoparticle
# Tests used:
# [1] = biological target: T1, β-amyloid 1-42 oligomer (Homo sapiens, UniProt P05067); test: Endocytosis of FITC-labeled β-amyloid 1-42 oligomer in human glial cells, confocal microscope; format: cell-based; settings: 10 μM, 12 hours
# T1 construct: oligomers prepared from FITC green dye-labeled β-amyloid 1-42 polypeptide; host or cells: exogenous peptide added to human glial cells
# T1 sequence (P05067 672-713 limits assumed): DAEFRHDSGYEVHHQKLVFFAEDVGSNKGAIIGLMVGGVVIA
# Procedure: 1 μM FITC fluorescein-labeled 5 μM β-amyloid oligomer and AB-NP were co-cultured in human glial cells for 4 hours, subsequently extracellular solution was washed away with PBS. […] The lysosome theoretically can degrade β-amyloid so as to eliminate toxicity brought about by β-amyloid extracellular accumulation. (3) β-amyloid hijack experiment: 10 μM oligomers prepared from FITC green dye-labeled 3-amyloid 1-42 peptide and 10 μM AV45-NP were co-incubated, then, the treated residue not entering the cell was washed off with PBS, followed by confocal microscope imaging, to detect green fluorescence of the β-amyloid 1-42 oligomers. […] The lysosomal dye lysoTracker was used to label the lysosome. […] 10 μM AV-45 or AV45-NP and 10 μM FITC green fluorescence dye-labeled β-amyloid oligomers were co-incubated in culture medium and treated human glial cells for 12 hours.
# [2] = tested on: human glioma in situ; test: In situ glioma model, immunohistochemical detection of EGFR and PCNA; format: in vivo, nude mice; settings: 10 mg/kg intravenous, every other day, 5 times
# Procedure: The administration was performed once every other day, 5 times in total, and after the administration cycle was completed, the mice were euthanized the next day, the brain tissues were taken and paraffin-embedded, and sectioned for immunohistochemical staining to study the protein degradation effect of NTZ on target protein EGFR and the tumor inhibition by detecting the tumor proliferation marker PCNA.
# [3] = biological target: T2, EGFR (Homo sapiens, UniProt P00533); test: EGFR protein degradation in cells, protein electrophoresis (Western blot); format: cell-based
# T2 construct: can degrade the membrane receptor protein EGFR in various tumor cells; endogenous in cells; host or cells: MDA-MB-231 (M231), HeLa, U87
# Procedure: In the above, the NP group refers to nanoparticles not linked with the POI recognition groups in the example. In all the examples involving multi-concentration test, the control group for POI recognition group and the control group for lipid hybrid substance were treated with the molar concentration equal to the highest concentration in concentration test group. All the protein electropherograms take GAPDH or VIN (vinculin) as internal reference.
# [4] = biological target: T2, EGFR; test: EGFR on cell surfaces, immunofluorescent staining and confocal microscopy, M231 cells; format: cell-based; settings: 500 nM antibodies, 24 hours
# [5] = biological target: T3, EGFP-labeled fused EGFR (Homo sapiens, UniProt P00533); test: Live-cell confocal imaging of EGFP-fused EGFR in M231 cells; format: cell-based; settings: M231 living cells, fixed visual field, photographed continuously
# T3 construct: expressed in transfected cells; host or cells: MDA-MB-231 (M231)
# [6] = tested on: HepG2 cells; test: CCK8 cell viability assay; format: cell-based, human; settings: 500 nM antibody, 24 h, p<0.001
# [7] = Acute toxicity, blood parameters of liver and kidney function after a single administration; format: in vivo, mice; settings: 10 mg/kg via tail vein, blood 12 hours after injection
# Procedure: In the present example, acute hepatotoxicity on mice by the NTZ-NP nano-structural protein degradation tool was studied. The nanoparticles, the solvent PBS control, NTZ antibodies of equal molar quantity, and NP of equal molar quantity without NTZ antibodies (10 mg/kg) were injected into mice via tail vein, blood was taken 12 hours after injection, and blood biochemical indicators were detected by a kit.
# [8] = Dynamic light scattering particle size and PDI; format: physicochemical
# Excerpt: FIG. 68 is a structural schematic diagram of CTX-RBCmD. FIG. 69 is a diagram of DLS particle size distribution results.
# [9] = tested on: M231 tumor
# Procedure: Administration every other day (15 mg/kg) was started on day 10 of inoculation of M231 tumor in female nude mice at 6-8 weeks of age, and a volume of the tumor (tumor length: a and width: b, volume calculation formula: ½ab^2) of the mice and body weight change were continuously monitored. After two weeks of administration, 7 times in total, the mice were euthanized the next day after the last administration, tumor tissues were isolated, and the tumor tissues were subjected to protein electrophoresis and immunofluorescence detection.
# In the above, after being isolated, the tumor tissues were paraffin-embedded and sectioned, followed by immunofluorescence staining, and immunofluorescence staining results of EGFR and apoptotic core signal cleaved caspase-3 were detected.
# [10] = biological target: T4, PD-1 receptor protein (Homo sapiens, UniProt Q15116); test: PD-1 expression in JURKAT cells overexpressing PD-1, protein electrophoresis; format: cell-based; settings: JURKAT cells overexpressing PD-1, 500 nM, 24 h
# T4 construct: expressed in transfected cells; host or cells: JURKAT cells overexpressing PD-1
# T4 sequence (Q15116 25-288): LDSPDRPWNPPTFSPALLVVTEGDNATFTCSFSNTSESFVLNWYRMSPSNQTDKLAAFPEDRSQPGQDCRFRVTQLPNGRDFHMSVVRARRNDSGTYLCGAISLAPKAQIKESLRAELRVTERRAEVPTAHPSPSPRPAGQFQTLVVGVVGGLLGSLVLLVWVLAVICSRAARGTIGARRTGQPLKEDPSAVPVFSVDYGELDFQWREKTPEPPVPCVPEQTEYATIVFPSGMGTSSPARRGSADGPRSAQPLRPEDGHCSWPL
# [11] = M231 cells, 500 nM, fresh medium without treatment from the 24th hour
molecule,measurement,setting,value
"CNc1ccc(/C=C/c2ccc(OCCOCCOCCF)nc2)cc1 [AV45, AV-45]",AV45 autofluorescence in cells (cell internalization),[1],very weak
ANG/NTZ-NP: NTZ-PEG-DSPE plus 20% Angiopep2-PEG-DSPE self-assembled with PLGA,EGFR in brain tumor (immunohistochemistry),[2],solvent PBS control group and the NTZ-NP group are stronger than the ANG/NTZ-NP group
same,proliferation marker PCNA in brain tumor (immunohistochemistry),[2],solvent PBS control group and the NTZ-NP group are stronger than the ANG/NTZ-NP group
NTZ-LNP2: NTZ-PEG-DMG with HSPC + cholesterol + DOTAP lipid nanoparticle,EGFR protein expression (protein electrophoresis),"[3]; M231 cells, 24 h, concentration not given",can effectively degrade the target protein EGFR
"NTZ-NP: PLGA nanoparticle core, PEG-DSPE intermediate layer, NTZ antibodies at periphery",EGFR expression (protein electrophoresis),"[3]; HeLa cells, 500 nM, 24 h",obvious decreases in EGFR expression
same,EGFR protein level / expression (protein electrophoresis),"[3]; M231 cells, 500 nM, 24 h",obvious decreases in EGFR expression
same,EGFR gradually recovered after,[3]; [11],> 72 h
same,optimal degradation time for a single treatment,[3]; [11],24 to 48 h
same,concentration at which EGFR is effectively degraded (as low as),"[3]; M231 cells, 24 h",10 nM
same,EGFR expression (protein electrophoresis),"[3]; U87 cells, 500 nM, 24 h",obvious decreases in EGFR expression
same,EGFR expression on cell surfaces (immunofluorescence),[4],remarkably decreased
same,green fluorescence signal of EGFP-labeled fused EGFR,[5],gradually decreases over time
same,cell proliferation (CCK8 cell viability),[6],significantly inhibited
same,"blood parameters BUN, UA, CR, ALB, ALP, ALT, AST",[7],no obvious abnormality
same,EGFR in brain tumor (immunohistochemistry),[2],stronger than the ANG/NTZ-NP group
same,proliferation marker PCNA in brain tumor (immunohistochemistry),[2],stronger than the ANG/NTZ-NP group
same,particle size (dynamic light scattering),[8],about 150 nm
same,EGFR protein expression level in isolated tumor tissues (protein electrophoresis),"[9]; 15 mg/kg every other day, 7 times, five mice, p<0.05",significantly down-regulated
same,tumor volume proliferation,"[9]; 15 mg/kg every other day, 7 times, versus PBS, equal molar NTZ antibody and antibody-free nanoparticle groups",obviously inhibited
same,EGFR signal in tumor tissues (immunofluorescence staining),[9]; after treatment completed,EGFR signal is reduced
same,apoptotic signal cleaved caspase-3 in tumor tissues (immunofluorescence staining),[9]; after treatment completed,apoptotic signal rises
NTZ-PEGlipo: NTZ antibody coupled to NHS-PEG liposomes (HSPC + cholesterol),EGFR protein level / expression (protein electrophoresis),"[3]; M231 cells, 500 nM, 24 h",can effectively degrade the target protein EGFR
NTZ-lipoP: NTZ-PEG-DSPE on HSPC/cholesterol lipid membrane wrapping PLGA nanoparticles,SIZE (DLS particle size),[8],257 ± 7.0
B1,expression of PD-1 receptor protein,[10],obviously reduced
